# Data from patent publication US20240309103A1 (Regeneron, published 2024).
# T1: human NPR1 extracellular domain expressed with a C-terminal mouse IgG2a (hNPR1-mFc) (human)
# T1 construct: also called hNPR1-Fc; human NPR1 dimer
# T1 chain: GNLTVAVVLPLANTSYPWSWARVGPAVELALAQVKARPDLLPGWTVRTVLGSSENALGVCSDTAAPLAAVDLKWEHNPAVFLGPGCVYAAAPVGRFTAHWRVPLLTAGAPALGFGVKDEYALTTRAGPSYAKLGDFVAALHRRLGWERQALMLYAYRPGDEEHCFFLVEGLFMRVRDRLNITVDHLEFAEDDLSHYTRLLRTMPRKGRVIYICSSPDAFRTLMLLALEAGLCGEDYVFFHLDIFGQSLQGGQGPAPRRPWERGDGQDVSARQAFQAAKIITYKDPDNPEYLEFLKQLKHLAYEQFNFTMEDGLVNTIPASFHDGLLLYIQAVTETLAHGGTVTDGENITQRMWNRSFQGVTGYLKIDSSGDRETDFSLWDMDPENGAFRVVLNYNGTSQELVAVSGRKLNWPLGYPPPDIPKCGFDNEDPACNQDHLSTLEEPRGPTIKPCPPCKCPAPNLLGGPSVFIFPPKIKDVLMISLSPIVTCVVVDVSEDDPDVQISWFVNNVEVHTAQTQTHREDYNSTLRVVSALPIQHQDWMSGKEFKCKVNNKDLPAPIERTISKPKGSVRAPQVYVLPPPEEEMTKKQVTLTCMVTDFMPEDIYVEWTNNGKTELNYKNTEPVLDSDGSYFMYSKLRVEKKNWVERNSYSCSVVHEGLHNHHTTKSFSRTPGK
# T2: monkey NPR1 extracellular domain expressed with a C-terminal myc-myc-hexahistidine (mfNPR1-MMH) (monkey, UniProt P16066 33-473 (human entry))
# T2 construct: also called monomeric monkey NPR1
# T2 chain: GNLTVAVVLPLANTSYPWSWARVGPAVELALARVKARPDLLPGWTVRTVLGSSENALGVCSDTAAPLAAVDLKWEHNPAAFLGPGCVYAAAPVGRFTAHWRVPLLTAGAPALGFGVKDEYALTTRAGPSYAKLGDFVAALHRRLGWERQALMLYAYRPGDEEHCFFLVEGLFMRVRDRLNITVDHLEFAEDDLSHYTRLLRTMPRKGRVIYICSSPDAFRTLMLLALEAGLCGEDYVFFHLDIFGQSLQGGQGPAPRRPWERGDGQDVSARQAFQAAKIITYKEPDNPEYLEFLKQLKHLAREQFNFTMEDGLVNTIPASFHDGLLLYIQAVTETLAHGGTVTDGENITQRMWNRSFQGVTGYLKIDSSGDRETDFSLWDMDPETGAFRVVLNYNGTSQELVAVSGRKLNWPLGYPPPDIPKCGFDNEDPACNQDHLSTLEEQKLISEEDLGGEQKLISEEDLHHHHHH
# T3: mouse NPR1 extracellular domain expressed with a C-terminal mouse IgG2a (mNPR1-mFc) (mouse)
# T3 chain: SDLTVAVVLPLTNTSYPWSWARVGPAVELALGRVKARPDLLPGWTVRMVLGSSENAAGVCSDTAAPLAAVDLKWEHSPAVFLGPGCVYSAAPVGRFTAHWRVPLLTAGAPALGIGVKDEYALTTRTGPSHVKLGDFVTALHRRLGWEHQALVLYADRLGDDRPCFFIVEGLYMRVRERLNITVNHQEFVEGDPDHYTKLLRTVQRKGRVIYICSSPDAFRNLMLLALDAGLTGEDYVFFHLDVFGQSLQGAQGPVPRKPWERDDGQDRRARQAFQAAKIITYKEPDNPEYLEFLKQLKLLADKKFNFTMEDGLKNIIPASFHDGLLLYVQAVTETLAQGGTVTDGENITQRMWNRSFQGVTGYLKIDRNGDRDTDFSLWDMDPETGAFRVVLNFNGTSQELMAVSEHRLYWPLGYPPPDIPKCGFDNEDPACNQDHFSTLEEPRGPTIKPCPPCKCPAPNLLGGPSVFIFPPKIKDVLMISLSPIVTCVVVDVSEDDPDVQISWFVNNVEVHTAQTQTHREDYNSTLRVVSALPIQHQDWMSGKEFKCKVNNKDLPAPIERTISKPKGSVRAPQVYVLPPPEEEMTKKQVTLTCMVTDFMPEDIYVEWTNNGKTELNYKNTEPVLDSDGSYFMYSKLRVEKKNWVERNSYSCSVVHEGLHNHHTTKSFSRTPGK
# B1: mAb25497 (antibody, V domains shown)
# VH: QVQLVQSGAEVKEPGASVKVSCKASGYTFTDYYIHWVRQAPGQGLEWMGWINLNSGGKNHAQKFQGRVTVTSDTSINTAYIELGRLRGDDTAVYYCSRGGGSHYYYYYHGMDVWGQGTTVTVSS
# VL: DIQMTQSPSSLSASVGDRITITCRASHSIDSYLNWYQQKPGKAPKLLIYPASTLQSGVPSRFSGSGSGTDFTLTISSLQPEDSAIYYCQQSYSTPLTFGGGTKVEIK
# B2: mAb22805 (antibody, V domains shown)
# VH: QVQLVESGGGVVQPGRSLRLSCAASGFTFSTYGMHWVRQAPGKGLEWVALIWNDGSNKYYADSVKGRFTISRDNSKNTLDLQMNSLRAEDTAVYYCARLNTRITGTTNLDYWGQGTLVTVSS
# VL: DIQMTQSPSSLSASVGDRVTVSCRASQSIANYLNWYQQKPGKAPNLLIYGAYTLQSGVPSRFRGSGSGTDFTLTISSLQPEDFATYYCQQTYSTPPITFGQGTRLEIK
# B3: mAb25498 (antibody, V domains shown)
# VH: QVQLVESGGGVVQPGRSLRLSCVASGFTFSSYGMVWVRQTPGKGLEWVAVIWHDGTNNYYADSVKGRFTISRDNSKNTLYLQMNSLRAEDTAVYYCAREPWLVRGYYYYAMDVWGQGTTVTVSS
# VL: not shown
# B4: mAb25508 (antibody, V domains shown)
# VH: EVQLVESGGGVVRPGGSLRLSCAASGFNVDDYGMSWVRQIPGKGLEWISGINWNGGRIYYADSMKGRITISRDNAKNSLYLQMNSLRAEDTALYHCVRDQWLVRGLDYWGQGTLVTVSS
# VL: DIQMTQSPSSLSASVGDRVTITCRASQGIYNYLAWFQQKPGKAPKSLIYAASSLQSGVPSKFSGSGSGTDFTLTISSLQPEDFATYYCQQYNTYPYTFGQGTKLEIK
# B5: mAb22809 (antibody, V domains shown)
# VH: QLQLRESGPGLVKPSETLSLTCTVSGGSINDNSFFWDWIRQTPGRGLEWIGNIFFDGNTYYTPSLKSRVIISVDMSQNQFSLRLTSVTAADTALYYCARHKRSMTAWGFFDYWGQGTLVTVSS
# VL: DIQMTQSPSSLSASVGDRVTITCRASKRINTYLNWYQQKPGKAPKVLIYSASNLQSGVPSRFSGSGSGTDFTLTINSLQPEDFATYFCQQSFSAPPITFGQGTRLEIK
# Target: T4, mouse NPR1 extracellular domain expressed with a C-terminal myc-myc-hexahistidine (mNPR1-MMH) (mouse, UniProt P18293 29-469)
# Experiment: SPR, mAb captured, 25 C
# Experimental: (§1) Equilibrium dissociation constant (KD) for different NPR1 reagents binding to purified anti-NPR1 monoclonal antibodies (mAbs) were determined using a real-time surface plasmon resonance based Biacore 4000 biosensor. All binding studies were performed in 10 mM HEPES, 150 mM NaCl, 3 mM EDTA, and 0.05% v/v Surfactant Tween-20, pH 7.4 (HBS-ET) running buffer at 25° C. and 37° C. The Biacore CM5 sensor chip surface was first derivatized by amine coupling with either mouse anti-human Fc specific mAb (GE Healthcare, #BR100839) or goat anti-human Fcy specific polyclonal antibody (Jackson ImmunoResearch Laboratories, #BR-1008-39) to capture anti-NPR1 mAbs.
Binder,100 nM Ag Bound (RU),binding result
B1,0,no binding (tested: 100 nM)
B2,0,no binding (tested: 100 nM)
B3,0,no binding (tested: 100 nM)
B4,0,no binding (tested: 100 nM)
B5,0,no binding (tested: 100 nM)

# Target: T1, human NPR1 extracellular domain …
# Experiment: SPR, mAb captured, 25 C
# Experimental: as §1
Binder,100 nM Ag Bound (RU),Kd [nM],koff [s⁻¹],kon [M⁻¹ s⁻¹],t½ [min],binding result
B1,49,0.238,4.83e-05,203000,239,–
B2,2,–,–,–,–,no binding (tested: 100 nM)
B3,94,3.65,0.000255,69800,45.3,–
B4,211,0.0868,6.85e-05,789000,169,–
B5,-2,–,–,–,–,–

# Target: T5, human NPR1 extracellular domain expressed with a C-terminal myc-myc-hexahistidine (hNPR1-MMH) (human, UniProt P16066 33-473)
# T5 construct: also called hNPR.mmh; monomeric human NPR1
# Experiment: SPR, mAb captured, 25 C
# Experimental: as §1
Binder,100 nM Ag Bound (RU),Kd [nM],koff [s⁻¹],kon [M⁻¹ s⁻¹],t½ [min],binding result
B1,22,52.7,0.00167,31700,6.9,–
B2,0,–,–,–,–,no binding (tested: 100 nM)
B3,68,81,0.00182,22500,6.3,–
B4,192,0.309,0.000134,432000,86.5,–
B5,0,–,–,–,–,–

# Target: T2, monkey NPR1 extracellular domain …
# Experiment: SPR, mAb captured, 25 C
# Experimental: as §1
Binder,100 nM Ag Bound (RU),Kd [nM],koff [s⁻¹],kon [M⁻¹ s⁻¹],t½ [min],binding result
B1,49,59.8,0.00226,37800,5.1,–
B2,0,–,–,–,–,no binding (tested: 100 nM)
B3,114,27.2,0.00158,57900,7.3,–
B4,213,0.187,0.000132,706000,87.5,–
B5,0,–,–,–,–,no binding (tested: 100 nM)

# Target: T4, mouse NPR1 extracellular domain …
# Experiment: SPR, mAb captured, 37 C
# Experimental: as §1
row,Binder,100 nM Ag Bound (RU)
1,B1,0
2,B2,1
3,B3,0
4,B4,0
5,B5,0

# Target: T1, human NPR1 extracellular domain …
# Experiment: SPR, mAb captured, 37 C
# Experimental: as §1
Binder,100 nM Ag Bound (RU),Kd [nM],koff [s⁻¹],kon [M⁻¹ s⁻¹],t½ [min]
B1,43,7.31,0.00031,42300,37.3
B2,8,–,–,–,–
B3,129,6.41,0.000568,88600,20.3
B4,242,0.121,0.000101,838000,114
B5,-1,–,–,–,–

# Target: T5, human NPR1 extracellular domain …
# Experiment: SPR, mAb captured, 37 C
# Experimental: as §1
Binder,100 nM Ag Bound (RU),Kd [nM],koff [s⁻¹],kon [M⁻¹ s⁻¹],t½ [min]
B1,31,139,0.00258,18600,4.5
B2,1,–,–,–,–
B3,97,184,0.00415,22500,2.8
B4,252,0.49,0.000222,453000,52.1
B5,-1,–,–,–,–

# Target: T2, monkey NPR1 extracellular domain …
# Experiment: SPR, mAb captured, 37 C
# Experimental: as §1
Binder,100 nM Ag Bound (RU),Kd [nM],koff [s⁻¹],kon [M⁻¹ s⁻¹],t½ [min]
B1,69,139,0.00384,27700,3
B2,3,–,–,–,–
B3,151,52.1,0.00369,70700,3.1
B4,275,0.349,0.000273,782000,42.3
B5,1,–,–,–,–

# Target: T3, mouse NPR1 extracellular domain …
# Experiment: SPR, Tables 21 to 26
# Experimental: as §1
row,Binder,binding result
1,B1,no binding
2,B2,no binding
3,B3,no binding
4,B4,no binding
5,B5,no binding
